Laboratory results from PMC12326010, “Substrate accessibility regulation of human TopIIa decatenation by cohesin” (Nature Communications, 2025).

Molecular target: the molecule itself
Test: single-molecule fluorescence intensity (confocal scans, optical tweezers); 2 nM TOP2α-AF555 bound at the junction of a DNA braid, 1 mM ATPγS (also four-braid substrates with ATP); 2D Gaussian fit of spot intensity, histogram of photon counts; 50 mM Tris pH 7.5, 125 mM potassium glutamate, 2.5 mM MgCl2, 0.5 mg/mL BSA

B1: Human topoisomerase II alpha labelled with Alexa Fluor 555 (TOP2α-AF555) (enzyme, UniProt P11388 1-1531, looked up)
chain: MEVSPLQPVNENMQVNKIKKNEDAKKRLSVERIYQKKTQLEHILLRPDTYIGSVELVTQQMWVYDEDVGINYREVTFVPGLYKIFDEILVNAADNKQRDPKMSCIRVTIDPENNLISIWNNGKGIPVVEHKVEKMYVPALIFGQLLTSSNYDDDEKKVTGGRNGYGAKLCNIFSTKFTVETASREYKKMFKQTWMDNMGRAGEMELKPFNGEDYTCITFQPDLSKFKMQSLDKDIVALMVRRAYDIAGSTKDVKVFLNGNKLPVKGFRSYVDMYLKDKLDETGNSLKVIHEQVNHRWEVCLTMSEKGFQQISFVNSIATSKGGRHVDYVADQIVTKLVDVVKKKNKGGVAVKAHQVKNHMWIFVNALIENPTFDSQTKENMTLQPKSFGSTCQLSEKFIKAAIGCGIVESILNWVKFKAQVQLNKKCSAVKHNRIKGIPKLDDANDAGGRNSTECTLILTEGDSAKTLAVSGLGVVGRDKYGVFPLRGKILNVREASHKQIMENAEINNIIKIVGLQYKKNYEDEDSLKTLRYGKIMIMTDQDQDGSHIKGLLINFIHHNWPSLLRHRFLEEFITPIVKVSKNKQEMAFYSLPEFEEWKSSTPNHKKWKVKYYKGLGTSTSKEAKEYFADMKRHRIQFKYSGPEDDAAISLAFSKKQIDDRKEWLTNFMEDRRQRKLLGLPEDYLYGQTTTYLTYNDFINKELILFSNSDNERSIPSMVDGLKPGQRKVLFTCFKRNDKREVKVAQLAGSVAEMSSYHHGEMSLMMTIINLAQNFVGSNNLNLLQPIGQFGTRLHGGKDSASPRYIFTMLSSLARLLFPPKDDHTLKFLYDDNQRVEPEWYIPIIPMVLINGAEGIGTGWSCKIPNFDVREIVNNIRRLMDGEEPLPMLPSYKNFKGTIEELAPNQYVISGEVAILNSTTIEISELPVRTWTQTYKEQVLEPMLNGTEKTPPLITDYREYHTDTTVKFVVKMTEEKLAEAERVGLHKVFKLQTSLTCNSMVLFDHVGCLKKYDTVLDILRDFFELRLKYYGLRKEWLLGMLGAESAKLNNQARFILEKIDGKIIIENKPKKELIKVLIQRGYDSDPVKAWKEAQQKVPDEEENEESDNEKETEKSDSVTDSGPTFNYLLDMPLWYLTKEKKDELCRLRNEKEQELDTLKRKSPSDLWKEDLATFIEELEAVEAKEKQDEQVGLPGKGGKAKGKKTQMAEVLPSPRGQRVIPRITIEMKAEAEKKNKKKIKNENTEGSPQEDGVELEGLKQRLEKKQKREPGTKTKKQTTLAFKPIKKGKKRNPWSDSESDRSSDESNFDVPPRETEPRRAATKTKFTMDLDSDEDFSDFDEKTDDEDFVPSDASPPKTKTSPKLSNKELKPQKSVVSDLEADDVKGSVPLSSSPPATHFPDETEITNPVPKKNVTVKKTAAKSQSSTSTTGAKKRAAPKGTKRDPALNSGVSQKPDPAKTKNRRKRKPSTSDDSDSNFEKIVSKAVTSKKSKGESDDFHMDFDSAVAPRAKSVRAKKPIKYLEESDEDDLF
modifications: Alexa555 conjugated CoA attached by SFP transferase to the ybbr tag (labelling efficiency ~30% or ~70%)
notes: Human topoisomerase II alpha (TOP2α), encoded from the pLIB vector with a C-terminal 3C-ybbr-tev-strepII tag; Two preparations: ~30% labelled (Strep-II tag apparently cleaved); The dimer rows rest on the ~30% preparation; also called TOP2α-Alexa555; TopIIa; source: baculovirus, SF9 or HighFive cells, purified (StrepTrap, HiTrap Heparin, size exclusion); not shown: ybbr, C-terminal, kept; StrepII, …
stoichiometry N: 2
